# Results: article PMC9729196, “An in silico method to assess antibody fragment polyreactivity” (Nature Communications, 2022)
# Read-outs that look alike come from different tables or passages of the source.
# T1: wild-type human FLAG-AT1R (angiotensin II type 1 receptor) (human, UniProt P30556 1-359)
# T1 chain: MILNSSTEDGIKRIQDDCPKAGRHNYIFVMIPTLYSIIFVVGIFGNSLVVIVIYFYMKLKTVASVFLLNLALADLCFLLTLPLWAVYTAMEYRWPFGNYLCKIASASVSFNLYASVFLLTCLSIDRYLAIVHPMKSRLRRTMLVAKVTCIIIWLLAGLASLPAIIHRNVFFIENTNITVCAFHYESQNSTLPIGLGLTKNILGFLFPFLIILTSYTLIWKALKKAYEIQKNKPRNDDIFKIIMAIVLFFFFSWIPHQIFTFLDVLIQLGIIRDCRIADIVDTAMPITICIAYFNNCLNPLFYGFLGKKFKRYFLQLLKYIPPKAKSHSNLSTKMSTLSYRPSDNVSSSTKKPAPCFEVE
# How the values were obtained:
# [1] = target: insulin (Homo sapiens (assumed; ), UniProt P01308)
# [2] = target: T1, wild-type human FLAG-AT1R (angiotensin …)
# [3] = target: T1, wild-type human FLAG-AT1R (angiotensin …); experiment: FACS
# [4] = target: T2, wild-type human FLAG-AT1R (angiotensin II type 1 receptor) (Homo sapiens, UniProt P30556); experiment: radioligand binding; competition of nanobody with 2 nM [3H]-olmesartan on membranes of FLAG-AT1R cells; 50 mM Tris pH 7.4, 12.5 mM MgCl2, 150 mM NaCl, 0.2% BSA, 90 min, room temperature; Ki from a one-site competition model; settings: one partner purified
# T2 construct: angiotensin II type 1 receptor (AT1R), human, wild type; Cells were gated with the M1 anti-FLAG antibody; also called angiotensin II type I receptor; source: Expi293F TetR cells, stably transfected (pCDNA Zeo-TetO), induced with doxycycline; on cells, or in cell membranes prepared from them
# [5] = target: T2, wild-type human FLAG-AT1R (angiotensin …); experiment: flow cytometry on cells; Expi293F cells expressing FLAG-AT1R stained with 20 nM nanobody (C-terminal V5), 1 h, 4 °C, 20 mM Hepes pH 7.4, 150 mM NaCl, 0.1% BSA; detected with Alexa 647 anti-V5; gated for M1 anti-FLAG-positive singlets; settings: one partner purified
# [6] = target: T1, wild-type human FLAG-AT1R (angiotensin …); experiment: [3H]-olmesartan competition, membranes
# insulin, sequence (F8WCM5 25-54, chain 1 of 2): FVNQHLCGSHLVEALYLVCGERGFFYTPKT
# insulin, sequence (P01308 90-110, chain 2 of 2): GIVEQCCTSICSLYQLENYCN
Binder,Ki [2] [nM],Kd [3] [nM],also measured
F10' (VHH) VHH: QVQLVESGGGLVQAGGSLRLSCAASGSTFWWYAMGWYRQAPGKERELVATISRGGSTNYADSVKGRFTISRDNAKNTVYLQMNSLKPEDTAVYYCARKTRDIRLDYWGQGTQVTVSS,–,–,binding result [1]: binds
"AT118i4h32 G26D^27 T57I^65 (VHH, as the chain of m1 with the two stated substitutions; its own crystal structure is one of PDB 7T83 and 7T84 (crystallised construct: N-terminal Met-Ala, C-terminal His tag); the superscripts are IMGT numbers; also called G26D^27 T57I^65 variant; source: E. coli BL21(DE3), pET26b, purified (Protein A, Ni-NTA); not shown: V5, C-terminal, kept; His6, C-terminal, kept) VHH: EVQLVESGGGLVQPGGSLRLSCAASDYIYRRYRMGWYRQAPGKGREFVAAISGGSSINYADSVKGRFTISRDNSKNTVYLQMNSLRAEDTAVYYCAAYRIVSDPRVYWGQGTQVTVSS",79.4,54,binding result [4]: binds
"AT118i4h32 T57D^65 (VHH, as the chain of m1 with the stated substitution; the superscript is the IMGT number; also called T57D^65 substitution; source: E. coli BL21(DE3), pET26b, purified (Protein A, Ni-NTA); not shown: V5, C-terminal, kept; His6, C-terminal, kept) VHH: EVQLVESGGGLVQPGGSLRLSCAASGYIYRRYRMGWYRQAPGKGREFVAAISGGSSDNYADSVKGRFTISRDNSKNTVYLQMNSLRAEDTAVYYCAAYRIVSDPRVYWGQGTQVTVSS",–,–,fold decrease of binding against the wild type [5]: 2 fold
AT118i4h32 G26D^27 (VHH) VHH: EVQLVESGGGLVQPGGSLRLSCAASDYIYRRYRMGWYRQAPGKGREFVAAISGGSSTNYADSVKGRFTISRDNSKNTVYLQMNSLRAEDTAVYYCAAYRIVSDPRVYWGQGTQVTVSS,70.8,–,–
AT118i4h32 T57I^65 (VHH) VHH: EVQLVESGGGLVQPGGSLRLSCAASGYIYRRYRMGWYRQAPGKGREFVAAISGGSSINYADSVKGRFTISRDNSKNTVYLQMNSLRAEDTAVYYCAAYRIVSDPRVYWGQGTQVTVSS,64.6,–,–
"AT118i4h32 (VHH, coordinates of the AT118i4h32 structures are deposited as PDB 7T83 and 7T84 (the crystallised construct has an N-terminal Met-Ala and a C-terminal His tag); humanised form of AT118 (eleven substitutions towards human VH3-23); Nanobody antagonist of AT1R from a synthetic library, humanised; also called WT AT118i4h32; wild-type nanobody; source: E. coli BL21(DE3), pET26b, purified (Protein A, …)) VHH: EVQLVESGGGLVQPGGSLRLSCAASGYIYRRYRMGWYRQAPGKGREFVAAISGGSSTNYADSVKGRFTISRDNSKNTVYLQMNSLRAEDTAVYYCAAYRIVSDPRVYWGQGTQVTVSS",–,58.3,Ki [6]: 72.4 nM; binding result [5]: binds
